Reference: patent US9200252B2, “Compositions for inducing differentiation into retinal cells from retinal progenitor cells or inducing proliferation of retinal cells comprising Wnt signaling pathway activators” (SNU R&DB Foundation, priority 2009, dated 2015)
Where “and” joins values, the source holds several entries; their conditions need not be identical. Equal entries are not always repeated.

Experiments:
Format in all cases: cell-based, human
[1] = system: hESC-derived retinal progenitor cells; assay: Differentiation into photoreceptor cells with Wnt3a or its inhibitor Dkk-1, without Shh and retinoic acid; immunofluorescent staining on Day 29
Experimental: In order to examine the function of the Wnt signaling pathway activator on differentiation from hESCs into retinal cells, particularly photoreceptor cells, cells were cultured in the presence of a Wnt signaling pathway antagonist. The Wnt/Frizzled signaling pathway inhibitor Dkk-1 (R&D Systems, Minneapolis, Minn., USA) was added at a concentration of 10 ng/ml, 100 ng/ml or 1 μg/ml on day 13, followed by culturing the cells for an additional 16 days. While the antagonist concentrations were maintained uniformly over the culture time period, the Wnt signaling pathway activator was assayed for activity. Dkk-1 was dissolved in 0.1% bovine serum albumin (BSA, Sigma-Aldrich) in PBS before use.
According to a protocol for differentiation into retinal cells, Wnt3a and Dkk-1 were added on Day 13 at the following concentrations: 50 ng/ml Wnt3a (group I), free of both Wnt3a and Dkk-1 (group II), 10 ng/ml Dkk-1 (group III), 100 ng/ml Dkk-1 (group IV), and […] Dkk-1 (group V). In each medium, the cells were cultured to Day 29. In this experiment, none of the other major differentiation factors Shh and RA were used.
On Day 29, the cells which had been cultured on poly-D-lysine/laminin-coated, 8-well slides (BD Biosciences) under the conditions of Wnt3a and Dkk-1 (groups I-V) were fixed with 4% paraformaldehyde (Sigma-Aldrich), after which non-specific reactions were blocked with PBS containing 3% BSA (Jackson Immunoresearch Laboratory, Bar Harbor, Me., USA) and 0.25% Triton X-100 (Sigma-Aldrich).
(§1) After being blocked for 90 min, the slides in each differentiation step were incubated overnight at 4° C. with the following antibodies specific for cells of each differentiation step: rabbit-Blue-opsin (1:500, Chemicon), sheep-Chx10 (1:100, Chemicon), rabbit-Crx (1:200, Santa Cruz Biotechnology, Santa Cruz, Calif., USA), rabbit-GFAP (1:200, Invitrogen), mouse-human specific mitochondria (1:50, Chemicon), rabbit-human specific mitochondria (1:200, Chemicon), mouse-Islet1 (1:10, Developmental Studies Hydroma Bank, DSHB; Iowa City, Iowa, USA), mouse-Ki67 (1:100, Vector Laboratories, Peterborough, England), mouse-Mitf (1:1,000, abcam, Cambridge, Mass., USA), mouse-nestin (1:250, BD Sciences), rabbit-neurofilament-200 (1:1,000, Sigma-Aldrich), rabbit-Otx2 (1:100, abcam), rabbit-Pax2 (1:250, abcam), mouse-Pax6 (1:2, DSHB), mouse-peripherin2 (1:500, GenScript, Piscataway, N.J., USA), rabbit-Rax (1:250, abcam), rabbit-recoverin (1:1,000, Chemicon), retinal pigment epithelium 65 (RPE65, 1:100, Chemicon), rabbit-rhodopsin (1:500, Sigma-Aldrich), mouse-rhodopsin (1:500, Ret-P1, Lab Vision, Fremont, Calif., USA), mouse-rhodopsin (1:2,000, Ret-P1, Sigma-Aldrich), mouse-rom1 (1:50, ABR-Affinity Bioreagents, Golden, Colo., USA), rabbit-PDE6 beta (1:100, abcam), rabbit-phosducin (1:500, Santa Cruz Biotechnology), mouse-PKC-alpha (1:500, Sigma-Aldrich), mouse-Prox1 (1:2,000, Chemicon), mouse-Sox2 (1:250, R&D Systems), rabbit-synaptophysin (1:2,000, Santa Cruz Biotechnology), and rabbit-ZO-1 (1:100, Zymed-Invitrogen).
Before use, these antibodies were diluted in a PBS solution containing 1% BSA and 0.25% Triton X-100. The cells were washed three times for 5 min with PBS and incubated at room temperature for 2 hrs with species-specific secondary antibody conjugated with Cy3 (1:800, Jackson Immunoresearch Laboratory) or Alexa488 (1:500, Invitrogen). A standard material suitable for the primary and the secondary antibody was used to examine non-specific staining or interaction between the antibodies. Afterwards, the cells were washed three times for 5 min with PBS, counterstained with DAPI (4,6-diamidino-2 phenylindole) and mounted in Vectashield (Vector Laboratories), followed by visualization under an epifluorescence microscope (Nikon Eclipse, E800, Tokyo, Japan) and a confocal microscope (Leica, Leica Microsystems Inc, Bannockburn, Ill., USA or Zeiss LSM510, Carl Zeiss, Inc, Thornwood, N.Y., USA). […]

[2] = system: hESC-derived retinal progenitor cells; assay: Expression levels of retinal cell markers before and after Wnt3a addition (retinal progenitor cells into neural retinal progenitor cells); conditions: on Day 18; Wnt3a 50 ng/ml for 5 days from Day 13
Experimental: To differentiate the retinal progenitor cells generated in Example 3 into neural retinal progenitor cells, Dkk-1 supply was quit on day 3 after induction and a culture medium containing a combination of noggin, IGF-1, FGF2 and Wnt3a was supplied for 5 days (FIG. 1). The culture medium was composed as follows: [DMEM/F12 (Invitrogen), 1 mM L-glutamine (Invitrogen), 0.1 mM nonessential amino acids (Invitrogen), 0.1 mM mercaptoethanol (Sigma-Aldrich), 1% B27 supplement (Invitrogen), 1% N2 supplement (Invitrogen), 10 ng/ml noggin, 10 ng/ml IGF-1, 5 ng/ml FGF2, and 50 ng/ml recombinant Wnt3a (R&D Systems)].
The eye field precursors (floating aggregates) were cultured in 8-well poly-D-lysine/laminin-coated slides (BD Biosciences, Bedford, Mass.) under the same conditions that were used for differentiation into the retinal progenitor cells, the neural retinal progenitor cells, the photoreceptor cell precursors and the photoreceptor cells. The cells completely cultured in each step were fixed with 4% paraformaldehyde (Sigma-Aldrich), after which non-specific reactions were blocked with PBS containing 3% BSA (Jackson Immunoresearch Laboratory, Bar Harbor, Me., USA) and 0.25% Triton X-100 (Sigma-Aldrich).
as §1
Before use, these antibodies were diluted in a PBS solution containing 1% BSA and 0.25% Triton X-100. The cells cultured on the slides in each step were washed three times for 5 min with PBS and incubated at room temperature for 2 hrs with species-specific secondary antibody conjugated with Cy3 (1:800, Jackson Immunoresearch Laboratory) or Alexa488 (1:500, Invitrogen). A standard material suitable for the primary and the secondary antibody was used to examine non-specific staining or interaction between the antibodies. Afterwards, the cells were washed three times for 5 min with PBS, counterstained with DAPI (4,6-diamidino-2 phenylindole) and mounted in Vectashield (Vector Laboratories), followed by visualization under an epifluorescence microscope (Nikon Eclipse, E800, Tokyo, Japan) and a confocal microscope (Leica, Leica Microsystems Inc, Bannockburn, Ill., USA or Zeiss LSM510, Carl Zeiss, Inc, Thornwood, N.Y., USA).
500 cells were counted from 20 microscopic fields randomly selected at 200 magnification and evaluated for positive responses to each antibody. Positive responses to antibodies were determined after at least three evaluations. […]

[3] = system: hESC-derived retinal progenitor cells; assay: as above
[4] = Wnt3a 50 ng/ml (Group I), from Day 13 to Day 29, no Shh, no RA
[5] = Dkk-1 10 ng/ml (Group III), from Day 13 to Day 29, no Wnt3a, Shh, RA
[6] = Dkk-1 10 ng/ml, 100 ng/ml, 1 μg/ml
[7] = Dkk-1 100 ng/ml (Group IV), from Day 13 to Day 29, no Wnt3a, Shh, RA
[8] = Dkk-1 1 μg/ml (Group V), from Day 13 to Day 29, no Wnt3a, Shh, RA

B1: Wnt3a: recombinant Wnt3a (R&D Systems), Wnt signaling pathway activator (protein, UniProt P56704 19-352, looked up)
Protein Wnt-3a: SYPIWWSLAVGPQYSSLGSQPILCASIPGLVPKQLRFCRNYVEIMPSVAEGIKIGIQECQHQFRGRRWNCTTVHDSLAIFGPVLDKATRESAFVHAIASAGVAFAVTRSCAEGTAAICGCSSRHQGSPGKGWKWGGCSEDIEFGGMVSREFADARENRPDARSAMNRHNNEAGRQAIASHMHLKCKCHGLSGSCEVKTCWWSQPDFRAIGDFLKDKYDSASEMVVEKHRESRGWVETLRPRYTYFKVPTERDLVYYEASPNFCEPNPETGSFGTRDRTCNVSSHGIDGCDLLCCGRGHNARAERRREKCRCVFHWCCYVSCQECTRVYDVHTCK
For B1, the “Positive rate of Crx” value [1, 4] was 32.5 (±0.3) %, the “Positive rate of Pax6” value [1, 4] was 82.1 (±4.0) % and the “Positive rate of peripherin2” value [1, 4] was 21.5 (±0.3) %. The “Positive rate of recoverin” value [1, 4] was 72.3 (±0.8) %, the “Positive rate of rhodopsin” value [1, 4] was 73.8 (±0.9) % and the “Expression level (positive rate) of Chx10 after Wnt3a addition” value [2] was 64.5 (±1.6) %. The “Expression level (positive rate) of Crx after Wnt3a addition” value [2] was 80.1% and 80.1 (±0.2) %, the “Expression level (positive rate) of Ki67 after Wnt3a addition” value [2] was 31.5 (±0.5) % and the “Expression level (positive rate) of Mitf after Wnt3a addition” value [2] was 2.7 (±1.0) %. The “Expression level (positive rate) of Nestin after Wnt3a addition” value [2] was 18.0% and 18.0 (±1.4) %, the “Expression level (positive rate) of Otx2 after Wnt3a addition” value [2] was 61.5 (±0.6) % and the “Expression level (positive rate) of Pax6 after Wnt3a addition” value [2] was 89.1 (±2.5) %. For the same molecule, the “Expression level (positive rate) of Peripherin2 after Wnt3a addition” value [2] was 13.9% and 13.9 (±2.4) %, the “Expression level (positive rate) of Rax after Wnt3a addition” value [2] was 98.2 (±0.9) % and the “Expression level (positive rate) of Recoverin after Wnt3a addition” value [2] was 68.5% and 68.5 (±2.6) %. For the same molecule, the “Expression level (positive rate) of Rhodopsin after Wnt3a addition” value [2] was 52.9% and 52.9 (±3.4) %, the “Expression level (positive rate) of Sox2 after Wnt3a addition” value [2] was 68.1 (±1.1) % and the “Pax6-positive cells with increase in Wnt3a concentration” value [3] was “increased in a dose-dependent manner”.

B2: Dkk-1: recombinant Dkk-1 (R&D Systems), Wnt/Frizzled signaling pathway inhibitor (protein, UniProt O94907 32-266, looked up)
Dickkopf-related protein 1: TLNSVLNSNAIKNLPPPLGGAAGHPGSAVSAAPGILYPGGNKYQTIDNYQPYPCAEDEECGTDEYCASPTRGGDAGVQICLACRKRRKRCMRHAMCCPGNYCKNGICVSSDQNHFRGEIEETITESFGNDHSTLDGYSRRTTLSSKMYHTKGQEGSVCLRSSDCASGLCCARHFWSKICKPVLKEGQVCTKHRRKGSHGLEIFQRCYCGEGLSCRIQKDHHQASNSSRLHTCQRH
B2 was tested, and the “Positive rate of Crx” value [1, 5] was 54.3 (±3.1) %, the “Positive rate of Pax6” value [1, 5] was 63.9 (±0.9) % and the “Positive rate of peripherin2” value [1, 5] was 27.0 (±1.0) %. The “Positive rate of recoverin” value [1, 5] was 55.1 (±0.6) %, the “Positive rate of rhodopsin” value [1, 5] was 49.1 (±2.0) % and the “Expression level of photoreceptor cell markers Crx, recoverin, rhodopsin and peripherin2 with increasing Dkk-1 concentration” value [1, 6] was “remarkably decreased”. For the same molecule, the “Expression level of retinal progenitor cell marker Pax6 with increase in Dkk-1 concentration” value [1, 6] was “decreased”, the “Positive rate of Crx” value [1, 7] was 7.4 (±1.1) % and the “Positive rate of Pax6” value [1, 7] was 51.8 (±1.0) %. The “Positive rate of peripherin2” value [1, 7] was 2.1 (±1.0) %, the “Positive rate of recoverin” value [1, 7] was 41.5 (±1.3) % and the “Positive rate of rhodopsin” value [1, 7] was 28.9 (±0.5) %. For the same molecule, the “Positive rate of Crx” value [1, 8] was 7.5 (±0.9) %, the “Positive rate of Pax6” value [1, 8] was 42.1 (±2.1) % and the “Positive rate of peripherin2” value [1, 8] was 0.1 (±0.1) %. For the same molecule, the “Positive rate of recoverin” value [1, 8] was 15.2 (±4.0) % and the “Positive rate of rhodopsin” value [1, 8] was 11.9% and 11.9 (±3.0) %.
